Data published in the nanobody polyreactivity screen of Harvey et al. (2022).

Assay: yeast display, Sf9 membrane polyspecificity reagent, FACS + sequencing; frameworks hold sequencing errors
Outline: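 Nanobodies came from a synthetic yeast display library in Saccharomyces cerevisiae BJ5465, induced with galactose for 36–48 hours and stained for 1 hour at 4 °C with 10% biotinylated, detergent-solubilized Sf9 membrane reagent. Cells were enriched on streptavidin microbeads and then FACS-sorted, with low and high (top ~1%) gates set on anti-HA fluorescence for expression and streptavidin fluorescence for reagent binding. Each polyreactivity label reflects the gate a clone came from. Genes were amplified by colony PCR, sequenced by MiSeq 2 × 250 and filtered by CDR length.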

Row | Sequence | polyreactivity (PSR sort gate)
1 | QVQLVESGGGLVQAGGSLRLSCAASGSTFSGYAMRWYRQAPGKERELVATITRRGGNTYDADSVKGGFTISRDNAKNTVYLQMNSLKPEDTAVYYCAKEGRVQSPYHYWGQGTQVTVSS | low polyreactivity
2 | QVQLVESGGGLVQAGGSLRLSCAASGSTFSHNAMGWYRQAPGKERELVAAISWSGGRTYADSVKGRFTISRDNAKNTVYLQMNSVKPDDTAVYYCNKVSYPSTSSSWFDYWGQGTQVTVSS | low polyreactivity
3 | QVQLVESGGGLVQAGGSLRLSCAASGSTFSIYAMGWSRQAPGKERELVAAITGTVGSTYYADSVKGRFTISRDNAKNTVYLQMNSLNPEDTAVYYCAARQVNYDYDYWGQGTQVTVSS | low polyreactivity
4 | QVQLVESGGGLVQAGGSLRLSCAASGSTFSIYARGWYRPAPGKERELVAAIRWSGGRTYYADSVKGRFTISRDNAKNTVYLQMNSLKPEDTAVYYCAAESTGSGYDYWGQGTQVTVSS | high polyreactivity
5 | QVQLVESGGGLVQAGGSLRLSCAASGSTFSKNGMGWYRQAPGKERELVAAITVNGGSTSYADSVKGRFTISRDNAKNTVYLQMNSLKPEDTAVYYCARRRYSKYYYWGQGTQVTVSS | high polyreactivity
6 | QVQLVESGGGLVQAGGSLRLSCAASGSTFSKYAMGWYRPAPGKERELVAAISSRGGSTYYADSVKGRFTISRDNAKNTVYLQMNSLKPEDTAVYYCATYYVYKLYYWGQGTQVTVSS | high polyreactivity
7 | QVQLVESGGGLVQAGGSLRLSCAASGSTFSLNAMGWYRQAPGKERELVAAITRSGGSTYYADSVKGRFTISRDNAKNTVYLQMNSLKPEDTAVYYCAALPRWSHRYDDWGQGTQVTVSS | high polyreactivity
8 | QVQLVESGGGLVQAGGSLRLSCAASGSTFSLYMGWYRQAPGKERELVAAITYSGGRTYYADSVKGRFTITLDNAKNTFYLQMNSVNPEDTAVYYCATVFNDLTVYEDWSRFDYWGQGTQVTVSS | low polyreactivity
9 | QVQLVESGGGLVQAGGSLRLSCAASGSTFSNNAMGWYRQAPGKERELVAAITRRGTSTYYADSVKGRFTISRDNAKNTVYLQMISLKPEDTAVYYCAAVYKLRHKRPSYGSWGQGTQVTVSS | high polyreactivity
10 | QVQLVESGGGLVQAGGSLRLSCAASGSTFSNNAMGWYRQAPGKERELVATISQSGGSTYYADSVKGRFTISRDNAKNTVYLQMNSLKPEDTAVYYCNAESYLTGWWYDYWGQGTQVTVSS | high polyreactivity
11 | QVQLVESGGGLVQAGGSLRLSCAASGSTFSNYAMGWYRQAPGKERELVAGIDWSGGSTYYADSVKGRFTISRDNAKNTVYLQMNSLKPEDTAVYYCAKRVWYHGRKLRGYYWGQGTQVTVSS | low polyreactivity
12 | QVQLVESGGGLVQAGGSLRLSCAASGSTFSPNDMGWYRQAPGKERELVADNSNYADSVKGRFTISRDNAKNTVYLQMNSLKPEDTAVYYCAAEWRGDRYRLYVVSWWYDYWGQGTQVTVSS | low polyreactivity
13 | QVQLVESGGGLVQAGGSLRLSCAASGSTFSPYAMGWYRQAPGKERELVADISWPGGTTYYADSVKGRFTISRDNAKNTVYLQMNSLKPEDTAVYYCAVTYWDYTFQITYEYWGQGSQVTVSS | low polyreactivity
14 | QVQLVESGGGLVQAGGSLRLSCAASGSTFSPYAMGWYRQAPGKERELVANITISGGSTYYADSVKGRFTISRDTAKNTVYLQMNSLKPEDTAVYYCNADSLIRWLFTVVILDYWGQGTLVTVSS | low polyreactivity
15 | QVQLVESGGGLVQAGGSLRLSCAASGSTFSPYGMGWYRQAPGKERELVAAIRGRGGNTYYADSVKGRFTISRDNAKNTVYLQMNSLKPEDTAVYYCAAQSFAQYGWRYGDWGQGTQVTVSS | high polyreactivity
16 | QVQLVESGGGLVQAGGSLRLSCAASGSTFSPYTMGWYRQAPGKERELVAAITWSGVTTYYADSVKGRFTISRDNAKNTVYLQMNSLKPEDSAVYYCAAGRTRRKFDYWGQGTQVTVSS | low polyreactivity
17 | QVQLVESGGGLVQAGGSLRLSCAASGSTFSRYAMGWYRQAPGKERELVAAISSSGGSTYYADSVKGRFTISRDNAKNTVYLQMNSLKPEDTAVYYCAVAVNGVSRIKYYYWGQGTQVTVSS | high polyreactivity
18 | QVQLVESGGGLVQAGGSLRLSCAASGSTFSRYAMGWYRQAPGKERELVAAISWRGGRTYYADSVKGRFTISRDNAKNTVYLPMNSLKPEDTAVYYCNAVSSFTSPRYAYWGQGTQVTVSS | high polyreactivity
19 | QVQLVESGGGLVQAGGSLRLSCAASGSTFSRYAMGWYRQAPGKEREMVAAINTRGGSTYYADSVKGRFTISRDNSKNTVYLQMNSLKPEDTAVYYCARRFYGFGPYYPFDYWGQGTQVTVSS | low polyreactivity
20 | QVQLVESGGGLVQAGGSLRLSCAASGSTFSRYTMGWYRQAPGKERELVAAIRRSGASTYYADSVKGRFTISRDNAKITVYLQMNSLKPEDTAVYYCAVGRYRYGYWGHGTQVTVSS | high polyreactivity
21 | QVQLVESGGGLVQAGGSLRLSCAASGSTFSSNAMGWYRQAPGKERELVAAITGSGGSTYYADSVKGRFTISRDNAKNTVYLQMNSLKPEDTAVYYCAAKWYGITYKYEYWGQGTQVTVSS | high polyreactivity
22 | QVQLVESGGGLVQAGGSLRLSCAASGSTFSSNTMGWYRQAPGKERELVAAITTGGDTYYADSVKGRFTISRDNAKNTVYLQMNSLKPEDTAVYYCAATPTYWYLWSPYDYWGQGTQVTVSS | low polyreactivity

Row | Sequence | polyreactivity (PSR sort gate)
23 | QVQLVESGGGLVQAGGSLRLSCAASGSTFSSNTMGWYRQAPGKEREMVAAITRRGGSTYYADSVKGRFTISRDNAKNTVYLQMNCLKPEDTAVYYCAARAYGGYGYWGQGTQVPVSS | low polyreactivity
24 | QVQLVESGGGLVQAGGSLRLSCAASGSTFSSNVMGWYRQAPGKERELVAAITGSGSRTYYADSVKGRFTISRDNAKNTVYLQMNSLKPEDTAVYYCNTKGRSRETYGYDYWGQGTQVTVSS | high polyreactivity
25 | QVQLVESGGGLVQAGGSLRLSCAASGSTFSSYAMGWYRQAPGKDRELVAAISSRGGRTYYADSVKGRFTISRDNAKNTVYLQMNSLKPEDTAVYYCNAPTSALRQGKDYGYWGQGTQVTVSS | high polyreactivity
26 | QVQLVESGGGLVQAGGSLRLSCAASGSTFSSYAMGWYRQAPGKERELVAAINWSGGRTYYADSVKGRFTISRDNAKNTVYLQMNSLKPEDTAVYYCAAVGVYTYPYDYWGQGTQVTVSS | high polyreactivity
27 | QVQLVESGGGLVQAGGSLRLSCAASGSTFSSYAMGWYRQAPGKERELVAAISTRSGSTYYADSVKGRFTISRDNAKNTVYLQMNSLKPEDTAVYYCAADGFYYDDGYWGQGTQVTVSS | low polyreactivity
28 | QVQLVESGGGLVQAGGSLRLSCAASGSTFSSYGMGWYRQAPGKERELVAAISKRGGSTYYADSVKGRFTISRDNAKNTVYLQMNSLKPEDTAVYYCAAAVRKQGYSTLFDYWGQGTQVTVSS | high polyreactivity
29 | QVQLVESGGGLVQAGGSLRLSCAASGSTFSSYVMGWDRQARGKERELVAAISSIGGSTYYADSVKGRFTISRDNAKNTVYLQMNSLKPEDTAVYYCAAEPPGSTYEGGYWGQGTQVTVSS | low polyreactivity
30 | QVQLVESGGGLVQAGGSLRLSCAASGSTFSTNAMGCYRQAPGKERELVAAISGRGGRTYYADSVKGRFTISRDNAKNTVYLQMTSLKPEDTAVYYCNTDSYLRMDYWGQGTQVTVSS | high polyreactivity
31 | QVQLVESGGGLVQAGGSLRLSCAASGSTFSTNAMGWYRQAPGQERELVAAISSSSGRTYYADSVKGRFTISRDNAKNTVYLQMNSLKPEDTAVYYCAAANQGYRSGRKGVQRFDYWGQGTQVTVSS | high polyreactivity
32 | QVQLVESGGGLVQAGGSLRLSCAASGSTFSTNFMGWYRQAPGKERELVAAISTIGGSTYADSVKGRFTISRDNAKNTVYLQMNSLKPEDTAVYYCAAVFRVRRKTYGYWGQGTQVTVSS | high polyreactivity
33 | QVQLVESGGGLVQAGGSLRLSCAASGSTFSTNVMGWSRQAPGKERELVAAISTIGGSTYADSVKGRFTISRDNAKNSVYLQMNSLKPEDTAVYDCAATRRWYPTKLYGYWGQGTQVTVSS | high polyreactivity
34 | QVQLVESGGGLVQAGGSLRLSCAASGSTFSTYAMGWSRLAPGKERELVATISKRGGSTYYADSVKGRFTISRDNAKNTVYLQMNSLKPEDTAVYYCAARWQWLNGYYYWGQGTQVTVSS | high polyreactivity
35 | QVQLVESGGGLVQAGGSLRLSCAASGSTFSTYAMGWYRQAPGKERELVAAISRTGGSTYYADSVKGRFTISRDNAKNTVYLQMNSLKPEDTAVYYCATGDSGGYDYWGQGTQVTVSS | low polyreactivity
36 | QVQLVESGGGLVQAGGSLRLSCAASGSTFSVYAMGWYRQAPGKERELVAAITWSGGSTYYADSVKGRFTISRDNAKNTVYLQMNSLKPEDTAVYYCAARYGRIHWKANWPEYGYWGQGTQVTVSS | low polyreactivity
37 | QVQLVESGGGLVQAGGSLRLSCAASGSTFSVYAMGWYRQAPGKERELVADNTRGGSTYADSVKGRFTISRDNAKNTVYLQMNSLKPEDTAVYYCAREEVTPYPLYWSTREYDYWGQGTQVTVSS | low polyreactivity
38 | QVQLVESGGGLVQAGGSLRLSCAASGSTFSVYAMGWYRQAPGKERELVATITWNGGRTYYADSVKGRFTISRDNAKNTVYLQMNSLKREDTAVYYCASPWLKPGNGIYGGYGYWGQGTQVTVSS | high polyreactivity
39 | QVQLVESGGGLVQAGGSLRLSCAASGSTFSWNTMGWYRQAPGNERELVAAINSGGSTYYADSVKGRFTISRDNAKNTVYLQMNSLIPEDTAVYYCASRTKYYGRFDYWGQGTQVTVSS | low polyreactivity
40 | QVQLVESGGGLVQAGGSLRLSCAASGSTFSYNAMGWYIQAPGKERELVAAISWSGGSTYYADSVKGRFTISRDYAKNTVYLQMNSLKPEDTAVYYCAADSPYGYYEGDYWGQGTQVTVSS | low polyreactivity
41 | QVQLVESGGGLVQAGGSLRLSCAASGSTFSYNAMGWYRQAPGKERELVAAFSFISGSTYYADSVKGRFTISRDNAKNTVYLQMNSLKPEDTAVYFCAKRYRLRGRYDYWGQGTQVTVSS | high polyreactivity
42 | QVQLVESGGGLVQAGGSLRLSCAASGSTFSYNTMGWYRQAPGKERELVATIDFNGGSTYYADSVKGRFTISRDNAKNTVYLQMNSLKPEDTAVYYCNADRYPYWGYDYWGQGTQVTVSS | low polyreactivity
43 | QVQLVESGGGLVQAGGSLRLSCAASGSTFSYYALGWYRQAPGKEREFVAAISRSGGRTYYADSVKGRFTFSRDNAKNTVYLQMNSLKPEDTAVYYCATVYYYDFSRTHPWPGDYWGQGTQVTVSS | high polyreactivity
